The text below walks through data of PMC3249508 (Journal of Molecular Biology, 2011).

A word on the Kd: it is a measure of binding affinity in units of concentration.

Read-outs that look alike come from different tables or passages of the source.

To fix the notation:
T1: DDX1 (1–428) (human, UniProt Q92499 1-428)
T1 sequence: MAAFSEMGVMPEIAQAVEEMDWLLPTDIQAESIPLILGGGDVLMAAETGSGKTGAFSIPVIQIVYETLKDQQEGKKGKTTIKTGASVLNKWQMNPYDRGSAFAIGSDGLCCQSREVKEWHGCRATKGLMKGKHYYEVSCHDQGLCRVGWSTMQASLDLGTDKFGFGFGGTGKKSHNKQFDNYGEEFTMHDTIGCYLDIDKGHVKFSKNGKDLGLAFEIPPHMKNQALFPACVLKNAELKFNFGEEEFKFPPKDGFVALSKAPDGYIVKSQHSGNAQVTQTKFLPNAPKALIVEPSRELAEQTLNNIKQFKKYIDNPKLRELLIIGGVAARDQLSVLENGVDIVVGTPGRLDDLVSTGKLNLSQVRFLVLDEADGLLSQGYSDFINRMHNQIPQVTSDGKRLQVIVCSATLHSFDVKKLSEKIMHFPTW

B1: recombinant full-length human DDX1 (enzyme)
chain: MAAFSEMGVMPEIAQAVEEMDWLLPTDIQAESIPLILGGGDVLMAAETGSGKTGAFSIPVIQIVYETLKDQQEGKKGKTTIKTGASVLNKWQMNPYDRGSAFAIGSDGLCCQSREVKEWHGCRATKGLMKGKHYYEVSCHDQGLCRVGWSTMQASLDLGTDKFGFGFGGTGKKSHNKQFDNYGEEFTMHDTIGCYLDIDKGHVKFSKNGKDLGLAFEIPPHMKNQALFPACVLKNAELKFNFGEEEFKFPPKDGFVALSKAPDGYIVKSQHSGNAQVTQTKFLPNAPKALIVEPSRELAEQTLNNIKQFKKYIDNPKLRELLIIGGVAARDQLSVLENGVDIVVGTPGRLDDLVSTGKLNLSQVRFLVLDEADGLLSQGYSDFINRMHNQIPQVTSDGKRLQVIVCSATLHSFDVKKLSEKIMHFPTWVDLKGEDSVPDTVHHVVVPVNPKTDRLWERLGKSHIRTDDVHAKDNTRPGANSPEMWSEAIKILKGEYAVRAIKEHKMDQAIIFCRTKIDCDNLEQYFIQQGGGPDKKGHQFSCVCLHGDRKPHERKQNLERFKKGDVRFLICTDVAARGIDIHGVPYVINVTLPDEKQNYVHRIGRVGRAERMGLAISLVATEKEKVWYHVCSSRGKGCYNTRLKEDGGCTIWYNEMQLLSEIEEHLNCTISQVEPDIKVPVDEFDGKVTYGQKRAAGGGSYKGHVDILAPTVQELAALEKEAQTSFLHLGYLPNQLFRTF
B2: Alexa-488-labeled HIV-1 Rev protein (natural protein)
chain: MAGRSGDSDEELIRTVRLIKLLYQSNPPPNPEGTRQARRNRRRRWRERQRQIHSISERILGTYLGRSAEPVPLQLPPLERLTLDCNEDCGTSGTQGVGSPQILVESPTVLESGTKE
modifications: Alexa-488 label (site not stated)

Data set [1] concerns the molecule itself. In words: SEC.
Data set [2] deals with B1. In words: fluorescence polarisation. Background: Polarisation of emitted light reports the rotation of a fluorescent probe.
Data set [3] has as its target B1. In words: fluorescence polarisation. This is another data set of the same source.
Data set [4] concerns the target B1. In words: fluorescence polarisation. This is another data set of the same source.
Data set [5] deals with T1, DDX1 (1–428). Description: fluorescence polarisation.
For data set [6], the target named is bovine serum albumin (bovine, UniProt P02769 25-607). In words: fluorescence polarisation.
Sequence of bovine serum albumin (P02769 25-607): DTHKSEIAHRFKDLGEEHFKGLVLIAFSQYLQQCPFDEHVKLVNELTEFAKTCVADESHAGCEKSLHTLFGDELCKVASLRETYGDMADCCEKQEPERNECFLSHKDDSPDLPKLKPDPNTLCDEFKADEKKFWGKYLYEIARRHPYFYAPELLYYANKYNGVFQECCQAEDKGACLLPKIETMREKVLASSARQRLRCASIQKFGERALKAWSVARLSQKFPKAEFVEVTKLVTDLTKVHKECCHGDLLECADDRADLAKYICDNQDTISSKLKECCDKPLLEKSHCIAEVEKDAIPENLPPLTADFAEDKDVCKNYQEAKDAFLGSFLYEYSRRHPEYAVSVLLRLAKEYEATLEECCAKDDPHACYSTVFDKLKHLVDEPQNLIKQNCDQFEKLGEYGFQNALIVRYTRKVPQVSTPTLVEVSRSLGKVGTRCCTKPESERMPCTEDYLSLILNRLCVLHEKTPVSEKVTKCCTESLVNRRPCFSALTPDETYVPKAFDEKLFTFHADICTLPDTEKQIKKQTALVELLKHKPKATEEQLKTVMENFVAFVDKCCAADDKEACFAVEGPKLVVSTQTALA

B1: the binding result in data set [1] is “binds”.

With B2, the dissociation constant (Kd) in data set [2] was 14.7 nM; in data set [3], 53 nM; in data set [4] it was 36 nM; in data set [5], 43 nM; in data set [6] it was greater than 500 nM.
